Assay results taken from US20250313621A1.

What was measured:
[1] = target: Wildtype human PAR2 expressed on cells (human) (UniProt P55085); experiment: cell-based or functional assay
[2] = target: Wildtype human PAR 1 (human) (UniProt P25116); experiment: cell-based or functional assay
[3] = target: V5His-huPAR2 on Flp-In CHO cells (human) (UniProt P55085); experiment: FACS titration on CHO_V5HIS-huPAR2 cells versus CHO parental cells (flat), RLU, axis Ab [nM]
Sequence of V5His-huPAR2 on Flp-In CHO cells (human) (P55085 37-397 limits assumed): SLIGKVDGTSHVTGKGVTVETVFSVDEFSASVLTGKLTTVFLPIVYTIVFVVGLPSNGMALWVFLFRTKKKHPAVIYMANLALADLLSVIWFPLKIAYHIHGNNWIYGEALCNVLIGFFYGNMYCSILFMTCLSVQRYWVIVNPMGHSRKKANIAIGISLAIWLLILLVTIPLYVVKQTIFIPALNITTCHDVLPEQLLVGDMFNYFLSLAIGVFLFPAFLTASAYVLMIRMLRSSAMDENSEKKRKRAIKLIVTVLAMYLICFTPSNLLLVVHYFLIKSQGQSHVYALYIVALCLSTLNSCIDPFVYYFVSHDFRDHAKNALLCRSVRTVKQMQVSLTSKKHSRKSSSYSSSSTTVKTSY

Sequence of Wildtype human PAR 1 (human) (P25116 42-425 limits assumed): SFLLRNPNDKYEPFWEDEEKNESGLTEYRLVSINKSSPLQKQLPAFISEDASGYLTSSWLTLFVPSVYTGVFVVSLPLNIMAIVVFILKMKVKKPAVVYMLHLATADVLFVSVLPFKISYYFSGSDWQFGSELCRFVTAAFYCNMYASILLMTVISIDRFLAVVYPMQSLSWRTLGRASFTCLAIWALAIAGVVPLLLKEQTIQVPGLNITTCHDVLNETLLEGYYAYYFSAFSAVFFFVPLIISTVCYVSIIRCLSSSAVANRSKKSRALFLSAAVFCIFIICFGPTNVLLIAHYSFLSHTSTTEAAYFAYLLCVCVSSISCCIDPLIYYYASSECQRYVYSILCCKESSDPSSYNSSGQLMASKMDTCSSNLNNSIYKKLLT
Sequence of Wildtype human PAR2 expressed on cells (human) (P55085 37-397 limits assumed): as the sequence (P55085 37-397 limits assumed) above

% Max Inhibition, AP challenge, IP-One [1]: 100%
% Max Inhibition, Bovine Trypsin challenge, IP-One [1]: 0%
Human PAR1 SFLLR IC50, IP-One [2]: > 1000 nM
SFLLR fold inhibition, human PAR1, IP-One [2]: 0 fold
EC50 [3]: 6.8 nM
Substance: MAB3949 (antibody)
